From publication PMC8913699, “Overall structure of fully assembled cyanobacterial KaiABC circadian clock complex by an integrated experimental-computational approach” (Communications Biology, 2022)

B1: KaiA from Synechococcus sp. PCC 7942 (natural protein)
chain: LSQIAICIWVESTAILQDCQRALSADRYQLQVCESGEMLLEYAQTHRDQIDCLILVAANPSFRAVVQQLCFEGVVVPAIVVGDRDSEDPDEPAKEQLYHSAELHLGIHQLEQLPYQVDAALAEFLRLAPVETMADHIMLMGANHDPELSSQQRDLAQRLQERLGYLGVYYKRDPDRFLRNLPAYESQKLHQAMQTSYREIVLSYFSPNSNLNQSIDNFVNMAFFADVPVTKVVEIHMELMDEFAKKLRVEGRSEDILLDYRLTLIDVIAHLCEMYRRSIPRET
notes: KaiA, Synechococcus sp; PCC 7942; Both N- and C-terminal domains were present in the sample, since the study locates the N-terminal domains, so it was probably whole KaiA; Hydrogenated in all samples; also called A2 (homodimer); hA (hydrogenated KaiA); source: E. coli, purified after cleavage of the his-tag
B3: phosphorylation mimic KaiC (S431 substituted with aspartate) from Synechococcus sp. PCC 7942 (natural protein)
chain: MTSAEMTSPNNNSEHQAIAKMRTMIEGFDDISHGGLPIGRSTLVSGTSGTGKTLFSIQFLYNGIIEFDEPGVFVTFEETPQDIIKNARSFGWDLAKLVDEGKLFILDASPDPEGQEVVGGFDLSALIERINYAIQKYRARRVSIDSVTSVFQQYDASSVVRRELFRLVARLKQIGATTVMTTERIEEYGPIARYGVEEFVSDNVVILRNVLEGERRRRTLEILKLRGTSHMKGEYPFTITDHGINIFPLGAMRLTQRSSNVRVSSGVVRLDEMCGGGFFKDSIILATGATGTGKTLLVSRFVENACANKERAILFAYEESRAQLLRNAYSWGMDFEEMERQNLLKIVCAYPESAGLEDHLQIIKSEINDFKPARIAIDSLSALARGVSNNAFRQFVIGVTGYAKQEEITGLFTNTSDQFMGAHSITDSHIDTITDTIILLQYVEIRGEMSRAINVFKMRGSWHDKAIREFMISDKGPDIKDSFRNFERIISGSPTRITVDEKSELSRIVRGVQEKGPES
notes: KaiC, Synechococcus sp; PCC 7942, phosphorylation mimic with S431 replaced by aspartate; A 75%-deuterated form (dC) was used in the iCM-SANS sample; Buffer contained 1 mM ATP and 5 mM MgCl2; also called C6 (homohexamer); hC; source: E. coli, purified as a Strep-tagged recombinant protein

Assays:
[1] = molecular target: the molecule itself; assay: AUC-SAXS; KaiA alone, 1.0 mg/mL, 25 °C; SV-AUC at 60,000 rpm with laboratory SAXS (NANOPIX); experimental profile compared with the crystal dimer and with simulated dimers
[2] = molecular target: T1, B6C6 complex (KaiB-KaiC complex formed beforehand and isolated by SEC) (Synechococcus sp. PCC 7942, UniProt Q79PF5 1-102; Q79PF4 1-519, S431 substituted with an aspartate residue); assay: AUC; sedimentation velocity, Rayleigh interference optics, 60,000 rpm, 30 °C; ternary KaiA-KaiB-KaiC mixture 1.0 mg/mL (KaiA added in excess to SEC-purified B6C6, final 24:12:6); hydrogenated proteins in H2O buffer: 20 mM Tris-HCl pH 8.0, 150 mM NaCl, 5 mM MgCl2, 0.5 mM EDTA, 1 mM DTT, 1 mM ATP; conditions: both partners purified
T1 construct: KaiB, Synechococcus sp; PCC 7942, as m2; KaiC, Synechococcus sp; PCC 7942, phosphorylation mimic with S431 replaced by aspartate, as m3; Oversaturating KaiA was added to this purified complex; the final molar ratio [KaiA]:[KaiB]:[KaiC] was 24:12:6; In the iCM-SANS sample both chains were 75%-deuterated; also called BC complex; B6C6 subcomplex; source: E. coli proteins, purified; KaiB and KaiC …
T1 sequence 1: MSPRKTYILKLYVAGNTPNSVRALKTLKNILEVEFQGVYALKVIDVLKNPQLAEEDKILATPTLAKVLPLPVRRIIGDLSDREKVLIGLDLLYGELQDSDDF
T1 sequence 2: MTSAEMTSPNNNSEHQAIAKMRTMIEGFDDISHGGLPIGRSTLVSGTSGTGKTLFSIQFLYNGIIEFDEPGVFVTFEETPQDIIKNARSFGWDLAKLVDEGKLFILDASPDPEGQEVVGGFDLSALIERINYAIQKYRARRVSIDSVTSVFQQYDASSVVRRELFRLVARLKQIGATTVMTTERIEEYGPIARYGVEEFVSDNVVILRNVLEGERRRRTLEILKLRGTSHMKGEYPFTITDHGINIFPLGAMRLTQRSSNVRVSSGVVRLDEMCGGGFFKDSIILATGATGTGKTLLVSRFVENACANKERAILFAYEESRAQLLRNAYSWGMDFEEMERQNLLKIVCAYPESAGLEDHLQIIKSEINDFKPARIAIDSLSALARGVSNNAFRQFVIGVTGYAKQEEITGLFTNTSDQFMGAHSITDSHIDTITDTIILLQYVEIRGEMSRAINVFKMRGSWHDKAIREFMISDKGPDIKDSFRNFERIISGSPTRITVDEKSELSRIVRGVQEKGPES

[3] = molecular target: B3; assay: SEC; KaiB and KaiC mixed 9:6 in 20 mM Tris-HCl pH 8.0, 150 mM NaCl, 5 mM MgCl2, 0.5 mM EDTA, 1 mM DTT, 1 mM ATP at 10 °C; complex isolated with SEC; conditions: both partners purified
[4] = molecular target: B1; assay: AUC; sedimentation velocity, Rayleigh interference optics, 60,000 rpm, 30 °C; ternary KaiA-KaiB-KaiC mixture 1.0 mg/mL (KaiA added in excess to SEC-purified B6C6, final 24:12:6); hydrogenated proteins in H2O buffer: 20 mM Tris-HCl pH 8.0, 150 mM NaCl, 5 mM MgCl2, 0.5 mM EDTA, 1 mM DTT, 1 mM ATP; conditions: both partners purified
[5] = molecular target: the molecule itself; assay: as above

With B1 the “stoichiometry N” value [1] was 2 and the “stoichiometry N” value [2] was 12 KaiA protomers per B6C6 complex.

B2: KaiB from Synechococcus sp. PCC 7942 (natural protein, UniProt Q79PF5 1-102, looked up)
chain: MSPRKTYILKLYVAGNTPNSVRALKTLKNILEVEFQGVYALKVIDVLKNPQLAEEDKILATPTLAKVLPLPVRRIIGDLSDREKVLIGLDLLYGELQDSDDF
notes: KaiB, Synechococcus sp; PCC 7942; A 75%-deuterated form (dB) was used in the iCM-SANS sample; also called B4 (homotetramer); hB; source: E. coli, purified after cleavage of the GST-tag
B2: binds [3]; binds [4].

In the case of B3, the “stoichiometry N” value [5] is reported as 6.
